Results as given in US8648039B2, “Use of alpha-lactalbumin for regulations of glycemia” (Compagnie Laitiere Europeene, priority 2006, dated 2014).

Legend:
[1] = tested on: male rats of the Wistar Hannover strain; test: Postprandial glycemia with glutathione synthesis inhibited by buthionine sulfoximine; assay type: in vivo; settings: buthionine sulfoximine injected one hour before the meal; acute
Procedure: In order to confirm the role of glutathione in the regulation of glycemia and the advantage of α-lactalbumin as a cysteine source from the viewpoint of synthesis of this compound, we used a glutathione-depleted rat model, by inhibiting the synthesis of this compound with buthionine sulfoximine treatment. In these animals, glucose tolerance and insulin sensitivity were measured, and also various parameters related to the oxidative stress state. The replenishing of glutathione stores and the change in the regulation of glycemia were measured in response to diets with various levels of enrichment in α-lactalbumin and cysteine supplementation.
The methodology of example 2, limited to the acute part of the study, was repeated. Four groups of 10 male rats of the Wistar Hannover strain were operated on, after their reception, in order to put in place a venous catheter. This catheter is introduced via the left jugular, descended to the level of the vena cava, and its proximal part interconnects at the cranial level, where it is secured in place so as to allow blood samples to be taken, in the desired amount, from a conscious animal.
One week later, the rats were divided up into 4 groups subjected to the sucrose-rich normal protein meals C0, C1, C2 and alphalac. An injection of buthionine sulfoximine, a […], was given beforehand (one hour before the meal). […]

[2] = tested on: IRS1 (insulin receptor substrate 1) protein; test: Activation of the insulin signaling pathway (IRS1 immunoprecipitation, Western blotting) at 6 weeks; assay type: in vivo, male rats of the Wistar Hannover strain; settings: muscle; 6 weeks of diet
Procedure: Four groups of 8 male rats of the Wistar Hannover strain were subjected for 6 weeks to the same sucrose-containing diets as those used in experiments 2 and 3 (P14 containing sucrose, C1, C2 and alphalac). An additional group of 8 rats, this being a non-sucrose control group, fed with a diet P14 containing 14 energy % of total milk proteins without sucrose, was added. This group constitutes the “normal” or “healthy” positive control in the evaluation of the insulin signaling pathway modifications related to the high-sucrose diet.
At 6 weeks, the anesthetized rats receive a dose of 0.750 mU.kg^−1 of insulin, directly injected into the vena cava. This injection makes it possible to light up the insulin signaling pathway and to evaluate the differences in activation between the various groups. 5 min after the injection, the muscle and the liver are removed, ground in a lysis buffer and directly immunoprecipitated with an antibody which recognizes the IRS1 (insulin receptor substrate 1) protein. The immunoprecipitated samples are then loaded onto a gel and then blotted onto a membrane (Western blotting technique). The membranes are successively hybridized with an antiphosphotyrosine antibody (tyrosine phosphorylation of the IRS protein is the first step in the insulin signaling pathway) and then an anti-total IRS1 antibody (FIG. 10).

B1: α-lactalbumin (protein, UniProt P00711 20-142, looked up)
Alpha-lactalbumin: EQLTKCEVFRELKDLKGYGGVSLPEWVCTTFHTSGYDTQAIVQNNDSTEYGLFQINNKIWCKDDQNPHSSNICNISCDKFLDDDLTDDIMCVKKILDKVGINYWLAHKALCSEKLDQWLCEKL
notes: milk serum protein; bovine form 14.2 kD, 123 amino acids
[1]
  influence of inhibition of glutathione synthesis on the effect on postprandial glycemia: does not modify
[2]
  expression of the IRS protein: attenuated
